According to patent publication US10287317B2, “Proprotein convertase subtilisin kexin type 9 (PCSK9) allosteric binding ligands to modulate serum low density lipoprotein (LDL) levels” (SRX Cardio, LLC, priority 2013, dated 2019):
*1 amine or outer side, *2 acyl side, *3 side chain or, on linkers, in order; H or OH if unused. Where a SMILES comes first, the peptide text is derived from it. Where no end group is shown, it is not given here. [ ]: non-standard residue; d: D form. The star is where a group is joined. Asp(NHCH2Ph) = Asp side-chain benzylamide, O=C(C[C@H](N[*:1])C(=O)[*:2])NCc1ccccc1; Cys(CH2-Ph) = S-benzyl-Cys, O=C([C@H](CSCc1ccccc1)N[*:1])[*:2]; Phe(3-CH2NH2) = O=C([C@H](Cc1cccc(CN[*:3])c1)N[*:1])[*:2]; Bip = N[C@@H](Cc1ccc(-c2ccccc2)cc1)C(=O)O; d(pS) = N[C@H](COP(=O)(O)O)C(=O)O; hCha = N[C@@H](CCC1CCCCC1)C(=O)O; hPhe = N[C@@H](CCc1ccccc1)C(=O)O; pS = N[C@@H](COP(=O)(O)O)C(=O)O; Cit = NC(=O)NCCC[C@H](N)C(=O)O; Bn = c1ccc(C*)cc1; βAla = NCCC(=O)O

Biological target: PCSK9-D374Y protein (Homo sapiens, UniProt Q8NBP7, D374Y)
Assay: Cellular diI-LDL uptake in HuH7 cells with PCSK9-D374Y
Format: cell-based
Conditions: HuH7, 0.5 μg/ml PCSK9-D374Y, 100 uM peptide (FIG. 3)
Experimental: HuH7 cells were incubated in a 96-well plate for a total of 20 h in the absence (Cnt) or presence of 0.5 μg/ml PCSK9-D374Y protein alone (DY) or mixed with 100 uM of various SRX peptides. After 16 h, dil-LDL (5 ug/ml) was added to the incubation mixtures. After 4 h, fluorescence was measured (Ex: 520 nm/Em: 575 nm; cutoff: 550 nm). Dil-LDL uptake is calculated as RFU corrected for the number of cells.
HuH7 cells were incubated in a 96-well plate for a total of 20 h in the absence (Cnt) or presence of 0.5 μg/ml PCSK9 GOF-D374Y protein alone (DY) or mixed with increasing concentrations of various SRX peptides. After 16 h, dil-LDL (5 ug/ml) was added to the incubation mixtures. After 4 h, fluorescence was measured (Ex: 520 nm/Em: 575 nm; cutoff: 550 nm). Dil-LDL uptake is calculated as RFU corrected for the number of cells.
(§1) LDL internalization was measured by uptake of a fluorescently tagged LDL molecule (diI-LDL) in the absence of exogenous PCSK9 (Cnt), in the presence of exogenous PCSK9 (normal PCSK9=WT, D374Y mutant PCSK9=DY), or in the presence of PCSK9 and a tested peptide (indicated as SRX##, or SRX if a single peptide results is shown in a graph).
(§2) Cells, such as HepG2, HuH7, FL83B or a cell line transfected with a short-hairpin PCSK9 knockdown sequence such as HepG2/shPCSK9, HuH7/shPCSK9, FL83B/shPCSK9, were seeded at 2×10^4 cells/well in a 96-well plate and cultured at 37 degC in RPMI+10% FBS. After approximately 24 hours, the cell media was aspirated off and replaced with RPMI+3-5 mg/mL LPDS (Lipoprotein Deficient Serum, Millipore) media for further experimentation. Benjannet et al., “Effects of the prosegment and pH on the activity of PCSK9: evidence for additional processing events” J Biol Chem. 285(52): 40965-40978 (2010).
(§3) Peptide activity was assessed by culturing cells with: i) no SRX peptide/PCSK9 protein complex (control, Cnt); ii) PCSK9 protein; and iii) SRX peptide/PCSK9 complex. Various permutations of these experimental conditions were also used, including: i) the addition of wild type PCSK9 (WT); ii) a mutant PCSK9 (e.g., D374Y mutant PCSK9, DY); iii) various SRX peptides and/or PCSK9 at the same concentration and/or combinations; iv) various SRX peptides and/or PCSK9 at different concentrations and/or combinations; v) the use of different cells, as mentioned above, with or without a transfected short-hairpin sequence; vi) a pre-incubation of the PCSK9 and SRX peptide (e.g., 1, hour, 2 hours, 3 hours, 4 hours etc.); vii) various temperatures including, but not limited to, body temperature (e.g., 37° C.), supraphysiologic temperature (e.g., 39° C.); and viii) with/without agitation (e.g., shaker or gentle periodic vortexing).
(§4) Cells were cultured using one of the combinations of conditions described in the preceding paragraph for 16 hours. After 16 hours, a quantity of diI-LDL (Low density lipoprotein coupled with 1,1′-dioctadecyl-3,3,3′,3′-tetramethylindocarbocyanine perchlorate) needed to bring the media concentration to 5 ug/mL of diI-LDL was added to the culture well and cells continued to be cultured under these new conditions for 4 additional hours. At the end of the 4-hour incubation period (20 total hours of cell culture), the cellular uptake was halted with the addition of 4% formaldehyde in 10 uM Hoechst 33342 in a solvent such as deionized autoclaved water or PBS, and specimens were incubated at 20° C. for 20 minutes. Cell specimens were rinsed twice with PBS and then fluorescence measured with excitation at 360 nm and emission detected at 460 nm to measure DNA content. Cell specimens were then be incubated with a 0.1% SDS in a 0.1 N NaOH solution while being shaken for 10 minutes. Fluorescence of the diI-LDL in the specimens were quantified using excitation at 530 nm and resulting emission at 580 nm.
Fluorescence measurements of diI-LDLR were normalized to estimated cell numbers, determined from the Hoechst fluorescence. […]

Chain of PCSK9-D374Y protein (Q8NBP7 153-692 D374Y): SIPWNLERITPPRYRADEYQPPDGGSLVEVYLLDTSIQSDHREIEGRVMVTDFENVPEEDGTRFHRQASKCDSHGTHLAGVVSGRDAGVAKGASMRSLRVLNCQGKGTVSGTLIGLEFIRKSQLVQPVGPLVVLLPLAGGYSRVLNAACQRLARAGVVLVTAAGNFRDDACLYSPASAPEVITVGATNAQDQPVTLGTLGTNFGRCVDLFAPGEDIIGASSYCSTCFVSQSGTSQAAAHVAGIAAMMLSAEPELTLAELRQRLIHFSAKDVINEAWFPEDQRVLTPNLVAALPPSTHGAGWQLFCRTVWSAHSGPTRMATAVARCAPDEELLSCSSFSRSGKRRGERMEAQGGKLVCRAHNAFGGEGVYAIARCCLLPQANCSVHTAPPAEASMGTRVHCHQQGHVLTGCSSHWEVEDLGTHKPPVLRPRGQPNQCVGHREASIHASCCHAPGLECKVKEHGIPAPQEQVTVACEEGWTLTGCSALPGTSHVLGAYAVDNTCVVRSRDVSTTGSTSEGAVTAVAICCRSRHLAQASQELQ

| Molecule | LDL internalization (dil-LDL % uptake vs Cnt) |
| --- | --- |
| CC(=O)N[C@@H](Cc1ccc(O)cc1)C(=O)N[C@@H](Cc1c[nH]c2ccccc12)C(=O)NCC(=O)O [Compound 14, Ac-Tyr-Trp-Gly] (Ac-Tyr-Trp-Gly-OH) | negatively modulated (decreased) |
| Thr-Leu-Hph-Thr-Trp-Ser-Ser-Ser(p) (TL[hPhe]TWSS[pS]) [Compound 6] | positively modulated (increased) |

Biological target: T1, PCSK9-WT protein (Homo sapiens, UniProt Q8NBP7)
T1 construct: V5
Assay: FACS analysis of cell surface LDLR in HuH7 cells with PCSK9-WT
Format: cell-based
Conditions: HuH7 cells, FACS, exogenous WT PCSK9 plus peptide (FIG. 1, 100 μM)
Experimental: HuH7 cells were incubated for 18 h in the absence (Cnt) or presence of 0.75 μg/ml PCSK9-WT protein alone (WT) or mixed with 100 μM of various SRX peptides. The level of LDLR at the cell surface was measured by FACS using anti human LDLR Ab and a suitable secondary Ab labeled with Alexa 647. Cell surface LDLR is reported relative to Cnt. % inhibition of activity was calculated as [SRX−WT]/[Cnt−WT]×100%.
See, FIG. 1. In that experiment, the LDLR levels of a hepatocyte culture model (HuH7 cells) were measured by fluorescence activated cell sorting (FACS) in accordance with Example III. Cell surface LDLR is reported as a percentage of Basal levels of LDLR, indicated by the Cnt_Amm.Bic, Cnt_Ac.Acid, and Cnt bars in the top graph. See, FIG. 1 (top panel). LDLR levels in the presence of exogenous PCSK9 is indicated as WT_Amm.Bic, WT-Ac.Acid, and WT, and Exogenous PCSK9 in combination with a tested peptide is indicated as SRX##. The measured LDLR levels are reported as % versus basal controls (Cnt) of the respective group. […] This was further shown a percent inhibition (% inhibition was calculated as [SRX−WT]/[Cnt−WT]×100%) where positive modulation (increase) of LDLR level is reported as positive % inhibition, and negative modulation (decrease) of LDLR level is reported as negative % inhibition. See, FIG. 1 (bottom panel).
Benjannet et al., “Effects of the prosegment and pH on the activity of PCSK9: evidence for additional processing events” J Biol Chem. 285(52): 40965-40978 (2010). The cells were then washed 3× with solution A (calcium/magnesium-free Dulbecco's PBS (Invitrogen) containing 0.5% bovine serum albumin (Sigma) and 1 g/liter glucose)). The cells were then incubated for 10 min at room temperature with 1× Versene solution (Invitrogen) followed by the addition of 5 ml of solution A. The cells were then incubated for 40 min in solution A containing a human LDLR mAb-C7 (1:100; Santa Cruz Biotechnology). Following washes, the cells were then incubated for 20 min in solution A containing a secondary antibody (Alexa Fluor 647 donkey anti-mouse antibody; 1:250; Molecular Probes).
Following suspension in PBS containing 0.2% of propidium iodide, the cells were analyzed by FACS for both propidium iodide (dead cells) and LDLR in live cells with Alexa Fluor 647 using the FACS BD LSR (BD Biosciences).

T1 sequence (Q8NBP7 153-692): as the sequence (Q8NBP7 153-692 D374Y) above, with Y222D counted along it

| Molecule | modulation of LDLR cell surface level |
| --- | --- |
| CC(=O)N[C@@H](Cc1ccc(O)cc1)C(=O)N[C@@H](Cc1c[nH]c2ccccc12)C(=O)NCC(=O)O [Compound 14, Ac-Tyr-Trp-Gly] (Ac-Tyr-Trp-Gly-OH) | negatively modulate (decrease) |
| Ac-Trp-Ala-Ser(p) (Ac-Trp-Ala-[pS]) [Compound 12] | negatively modulate (decrease) |
| Thr-Leu-Gly(CH2CH2cyclohexyl)-Thr-Trp-Ser-Ser-Ser(p) (TL[hCha]TWSS[pS]) [Compound 5] | positively modulate (increase) |

Same assay, conditions: Huh-7; FACS, HuH7 cells, peptide at 100 uM; read-out: Cell Activity of Exemplified Peptides (inhibition)

| Molecule | inhibition at 100 µM [%] |
| --- | --- |
| CC(C)C[C@H](NC(=O)[C@@H](N)[C@@H](C)O)C(=O)N[C@@H](CSCc1ccccc1)C(=O)N[C@H](C(=O)N[C@@H](Cc1c[nH]c2ccccc12)C(=O)N[C@@H](CO)C(=O)N[C@@H](CO)C(=O)N[C@@H](COP(=O)(O)O)C(=O)O)[C@@H](C)O [Compound 3, Thr-Leu-Cys(CH2-Ph)-Thr-Trp-Ser-Ser-Ser(p)] (H-TLC(Bn)TWSS[pS]-OH) | > 30 |
| CC(=O)N[C@@H](Cc1ccc(O)cc1)C(=O)N[C@@H](Cc1c[nH]c2ccccc12)C(=O)NCC(=O)O [Compound 14, Ac-Tyr-Trp-Gly] (Ac-Tyr-Trp-Gly-OH) | < -30 |

Biological target: T1, PCSK9-WT protein
Assay: Cellular diI-LDL uptake in HuH7 cells with PCSK9-WT
Format: cell-based
Conditions: HuH7, 1.0 μg/ml PCSK9-WT, 100 uM peptide (FIG. 2)
Experimental: HuH7 cells were incubated in a 96-well plate for a total of 20 h in the absence (Cnt) or presence of 1.0 μg/ml PCSK9-WT protein alone (WT) or mixed with 100 uM of various SRX peptides. After 16 h, dil-LDL (5 ug/ml) was added to the incubation mixtures. After 4 h, fluorescence was measured (Ex: 520 nm/Em: 575 nm; cutoff: 550 nm). Dil-LDL uptake is calculated as RFU corrected for the number of cells.
as §1, §2, §3, §4
Fluorescence measurements of diI-LDLR were normalized to estimated cell numbers, determined from the Hoechst fluorescence. Data was analyzed for the different experimental conditions and reported as percentage relative fluorescence units (RFU) of the Cnt specimen. Percent inhibition was calculated as the difference in RFU of a peptide exposed specimen to the RFU of PCSK9-no peptide, divided by the RFU difference in PCSK9-no peptide to RFU of Cnt specimen, also expressed as [(SRX:RFU)−(PCSK9-no peptide:RFU)]/[(PCSK9-no peptide:RFU)−(Cnt:RFU)]×100.

| Molecule | LDL internalization (dil-LDL % uptake vs Cnt) |
| --- | --- |
| Ile-Leu-Asp-Leu-Ser-Tyr (ILDLSY; not fully specified (C-terminus); printed as Ile-Leu-Asp-Leu-Ser-Tyr) [Compound 10] | positively modulated (increased) |

Biological target: PCSK9-WT protein (human proprotein convertase subtilisin/kexin type 9) (human, UniProt Q8NBP7 31-692, limits assumed)
Assay: cell-based or functional assay
Conditions: not given

Chain of PCSK9-WT protein (human proprotein convertase subtilisin/kexin type 9) (Q8NBP7 31-692 limits assumed): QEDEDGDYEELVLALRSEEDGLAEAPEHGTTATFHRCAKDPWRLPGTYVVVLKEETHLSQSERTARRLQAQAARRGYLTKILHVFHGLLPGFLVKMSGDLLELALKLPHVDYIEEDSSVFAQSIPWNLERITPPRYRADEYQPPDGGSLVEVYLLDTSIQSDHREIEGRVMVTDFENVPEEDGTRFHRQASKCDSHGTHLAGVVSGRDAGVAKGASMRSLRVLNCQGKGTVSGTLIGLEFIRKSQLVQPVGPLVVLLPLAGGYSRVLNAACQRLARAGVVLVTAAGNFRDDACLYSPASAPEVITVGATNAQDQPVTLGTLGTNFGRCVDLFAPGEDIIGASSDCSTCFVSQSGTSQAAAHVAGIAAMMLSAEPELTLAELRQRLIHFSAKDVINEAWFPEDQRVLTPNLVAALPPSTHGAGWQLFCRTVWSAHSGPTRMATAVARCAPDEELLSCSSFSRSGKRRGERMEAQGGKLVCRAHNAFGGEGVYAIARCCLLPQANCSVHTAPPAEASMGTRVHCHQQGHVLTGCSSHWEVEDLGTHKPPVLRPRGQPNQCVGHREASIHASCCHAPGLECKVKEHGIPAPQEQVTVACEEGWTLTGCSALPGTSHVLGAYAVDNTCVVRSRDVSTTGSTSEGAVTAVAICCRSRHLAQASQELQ

| Molecule | cell surface LDLR levels, FACS in HuH7 cells, 10 nM recombinant PCSK9 [% reversal] | Cell Activity of Exemplified Peptides (FACS of cell surface LDLR, HuH7/shPCSK9 cells) |
| --- | --- | --- |
| VYVRF-{NH(cyclopentyl)} [SRX321: Val-Tyr-Val-Arg-Phe-NH(cyclopentyl)] | > 60 | – |
| VYV[Cit]FW-NHEt [SRX314: Val-Tyr-Val-Cit-Phe-Trp-NHEt] | > 60 | – |
| VYV[Cit]FW-NH2 (N-terminus assumed; SMILES CC(C)[C@H](N)C(=O)N[C@@H](Cc1ccc(O)cc1)C(=O)N[C@H](C(=O)N[C@@H](CCCNC(N)=O)C(=O)N[C@@H](Cc1ccccc1)C(=O)N[C@@H](Cc1c[nH]c2ccccc12)C(N)=O)C(C)C) [SRX310: Val-Tyr-Val-Cit-Phe-Trp-NH2] | 60 | – |
| Ac-Tyr-Trp-Gly [SRX72: Ac-Tyr-Trp-Gly] | – | > 30 % inhibition below control at 100 uM |
| VYVRFW (not fully specified; printed as Val-Tyr-Val-Arg-Phe-Trp) [SRX55: Val-Tyr-Val-Arg-Phe-Trp] | – | > 30 % inhibition above control at 100 uM |
| [βAla][Phe(3-CH2NH2)]V[d(pS)]FW [SRX56: β-Ala-Phe(3-CH2NH2)-Val-D-Ser(p)-Phe-Trp] | – | > 30 % inhibition above control at 100 uM |
| VLELYW [SRX65: Val-Leu-Glu-Leu-Tyr-Trp] | – | > 30 % inhibition above control at 100 uM |
| TL[Cys(CH2-Ph)]TWSS[pS] [SRX60: Thr-Leu-Cys(CH2-Ph)-Thr-Trp-Ser-Ser-Ser(p)] | – | > 30 % inhibition above control at 100 uM |
| [Bip]-Ala-[pS]-morpholine [SRX73: Phe(4-Ph)-Ala-Ser(p)-morpholine] | – | > 30 % inhibition below control at 100 uM |
| Ac-Trp-Ala-[pS] [SRX69: Ac-Trp-Ala-Ser(p)] | – | > 30 % inhibition below control at 100 uM |
| LDLFFS [SRX66: Leu-Asp-Leu-Phe-Phe-Ser] | – | > 30 % inhibition above control at 100 uM |
| TL[hCha]TWSS[pS] [SRX62: Thr-Leu-Gly(CH2CH2cyclohexyl)-Thr-Trp-Ser-Ser-Ser(p)] | – | > 30 % inhibition above control at 100 uM |
| TL[Asp(NHCH2Ph)]TWSS[pS] [SRX61: Thr-Leu-Asp(NHCH2Ph)-Thr-Trp-Ser-Ser-Ser(p)] | – | > 30 % inhibition above control at 100 uM |
